Results: patent US20200231656A1 (UNIVERSIT T HEIDELBERG, published 2020)
Where “and” joins values, the source holds several entries; their conditions need not be identical. Identical values can stand only once.

Tests used:
[1] = target: T1, norovirus GII.10 VLPs (full-length capsid protein VP1, virus-like particles) (norovirus GII.10 (Vietnam026))
T1 chain: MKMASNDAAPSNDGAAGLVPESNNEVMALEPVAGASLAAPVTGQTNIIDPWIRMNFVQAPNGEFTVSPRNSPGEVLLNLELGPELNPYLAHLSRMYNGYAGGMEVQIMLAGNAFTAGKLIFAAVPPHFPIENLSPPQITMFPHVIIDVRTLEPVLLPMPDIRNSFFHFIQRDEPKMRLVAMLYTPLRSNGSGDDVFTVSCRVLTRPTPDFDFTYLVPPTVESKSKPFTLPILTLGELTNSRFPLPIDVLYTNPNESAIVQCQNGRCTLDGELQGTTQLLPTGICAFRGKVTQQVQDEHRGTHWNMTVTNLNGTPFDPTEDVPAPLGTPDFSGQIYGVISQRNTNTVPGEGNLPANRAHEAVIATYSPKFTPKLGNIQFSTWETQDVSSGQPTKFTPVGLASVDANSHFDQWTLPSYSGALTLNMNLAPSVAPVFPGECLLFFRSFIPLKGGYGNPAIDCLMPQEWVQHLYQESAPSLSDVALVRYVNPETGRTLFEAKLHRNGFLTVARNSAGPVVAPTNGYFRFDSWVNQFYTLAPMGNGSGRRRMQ

[2] = target: T2, norovirus GII.4 2006 VLPs (full-length capsid protein VP1, virus-like particles) (norovirus GII.4 (Saga4 2006)); experiment: blocking ELISA: GII.4 VLPs pretreated with Nano-26, binding to coated PGM
T2 construct: mature; also called GII.4 VLPs

B1: Nano-26 (VHH)
VHH: QVQLQESGGGLVQPGGSLRLSCTAPRIIFFMYDVGWYRQAPEKQRELVAQINSDVSTKYADSVKGRFTISRDNAKRTVYLQMNDLKPEDAAVYYCNVRRASADYWGQGTQVTVSS
notes: also called Nanobody Nano-26; N26; not shown: His-tag implied by detection with an anti-His-tag antibody (pHEN6C vector); its
Question: With B1 as the binder, how does the IC50 [1] read?
Answer: 6.6 µg/mL and 3.1 µg/mL and 2.6 µg/mL and 4.3 µg/mL

Question: And the IC50 [2]?
Answer: 2.4 µg/mL
